In publication doi:10.1101/2020.05.05.078790:

Target: HLA-E*0103 heavy chain-β2M complex (human)
Test: ELISA

Substance	percent of the VL9 signal after background subtraction
BZLF1 (…) (peptide)	41%
RL9HIV (…) (peptide)	43%
RL9SIV (…) (peptide)	22%
